In the experiment the target is E2-E1 heterodimer of WT Sindbis virus (strain TE12) (Sindbis virus) (UniProt P03316). Kind of experiment: cryo-EM structure.

Substance “E2-E1 heterodimer of WT Sindbis virus (strain TE12) (from UniProt P03316 807-1245) (complex)” yielded a stoichiometry N of 3.
